Positions count from the first letter of the chain named.
B1: 75110_09G15A (antibody, V domains shown)
VH: EVQLVESGGGLVQPGGSLRLSCAASGFTFSDYWMSWVRQAPGKGLEWVANINQDGSEKYSVDSVKGRFTISRDNAKNSLYLQMNSLRAEDTAIFYCAREGGQWLALDYWGQGTLVTVSS
VL: DIQMTQSPSSVSASVGDRVTITCRASQGISSWLAWYQQKPGKAPKLLIYGASSLQSGVPSRFSGSGSGTDFTLTINSLQPEDFTTYYCQQANIFPWTFGQGTKVEIK
notes: Tested here as non-clonal hybridoma supernatant from AlivaMab Mouse Kappa mice (detected with anti-mouse Fc and anti-human kappa)
B2: 75110_09N20A (antibody, V domains shown)
VH: B1 VH with D31S, Q53E, S60Y, I93V, F94Y, A97V
VL: B1 VL with G50A, R61S, T84A, I93S, E105A
notes: as for B1
B3: 75110_12H17A (antibody, V domains shown)
VH: B1 VH with N52K, Q53E, S56N, S60Y, Y80F, I93V, F94Y, T113A
VL: B1 VL with L46F, Y49S, S63T, N76S, T84A, I93S
notes: as for B1
B4: 75110_12H19A (antibody, V domains shown)
VH: EVQLVESGGGLVQPGGSLRLSCAASGFTFSSYWMSWVRQAPGQGLEWVANINEDGNEKYHVDSVKGRLTISRDNAKNSLYLQMNSLRGVDTAVYFCAREGGQWLALDYWGQGALVTVSS
VL: B1 VL with T20S, S53G, N76S, T84A, I93S
notes: as for B1
B5: 75110_04B08A (antibody, V domains shown)
VH: QVQLVESGGGVVQPGRSLRLSCTASGFNFINYGIHWVRQAPGKGLEWVTIIWYDGSKKYYADSVKGRFAISRDNSKNTLYLQMNSLRAEDTAVYYCAREDDWNDGLAYWGQGTLVTVSS
VL: AIQMTQSPSSLSASVGDRVTITCRASQDIRNDLGWYQQKPGKAPNLLIYAASNLQSGVPSRFSGSGSGTDFTLTISSLQPEDFATYYCLQDSNYPRTFGQGTKVEIK
notes: as for B1
B6: 75110_05L07A (antibody, V domains shown)
VH: B1 VH with D31S, E57D, S60Y, A75V, M83I, I93V, F94Y, A105T
VL: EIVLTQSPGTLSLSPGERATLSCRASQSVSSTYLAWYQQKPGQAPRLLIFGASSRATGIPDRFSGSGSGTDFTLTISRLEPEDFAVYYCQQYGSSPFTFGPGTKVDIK
notes: as for B1
B7: 75110_10L22A (antibody, V domains shown)
VH: EVQLVESGGGLVQPGGSLRLSCAASGFTFSSYDMHWVRQATGKGLEWVSTIGTAGDTYYPGSVKGRFTISRENAKNSLYLQMNGLRAGDTAVYYCARGNYFYYGVDVWGQGTTVTVSS
VL: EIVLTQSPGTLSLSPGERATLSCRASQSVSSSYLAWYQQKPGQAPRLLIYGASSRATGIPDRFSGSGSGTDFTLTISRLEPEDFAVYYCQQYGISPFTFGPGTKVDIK
notes: as for B1
B8: 75110_01J09A (antibody, V domains shown)
VH: B1 VH with A23V, D31S, I51T, N52K, Q53E, E57D, S60Y, S71C, I93V, F94Y
VL: B1 VL with T22N, K45N, Y49F, S67F, T72S, N76T, S77T, T84A, Y87H, I93S
notes: as for B1
B9: 75110_02E08A (antibody, V domains shown)
VH: QVQLQESGPGLVKPSETLSLTCTVSGGSISTYYWTWIRQPAGKGLEWIGRVYTSGDTNYNPSLKSRVAMSLDTSKNQFSLKLSSVTAADTAVYYCARDSGALYSWNYGDAFDIWGQGTMVTVSS
VL: DIQMTQSPSAMSASVGDRVTITCRASQDISNYLAWFQQKPGKVPKRLIYAASSLQSGVPSRFSGSGSGTEFTLTISSLQPEDFATYYCLQHNSYPRTFGQGTKVEIK
notes: as for B1
B10: 75110_03C01A (antibody, V domains shown)
VH: QVQLQQWGAGLLKPSETLSLTCAVYGGSFSGYYWSWIRQSPGKGLEWIGEINQSGSTNYNPSLKSRVTISVDTSKDQFSLKLSSVTAADTAVYYCARVINWFDSWGQGSLVTVSS
VL: B1 VL with K42N, G50D, L54F, N76S, P80T, T84A, I93S, W96Y, V104L
notes: as for B1
B11: 75110_03L12A (antibody, V domains shown)
VH: B10 VH with S40P, Q53H, K75E, D76N, K81T, S83I, A96V, V98L, S104P, S109T
VL: DIQMTQSPSSVSASVGDRVTITCRASQDISNWLAWYQQKPGKAPKLLIFAASSLQSGVPSRFSGSGSGTDFTLTISSLQPDDFATYYCQQANSFPYTFGQGTNLGIK
notes: as for B1
B12: 75110_04P08A (antibody, V domains shown)
VH: B10 VH with F29L, K81R, S83T, A96T, I99L, S104P, Q107R, S109T
VL: B11 VL with I21L, F49Y, P80T, D81E, N103K, G105E
notes: as for B1

Tests used:
[1] = biological target: T1, human CD4 on the surface of SKW3 cells or human PBMCs (human, UniProt P01730 26-458); test: FACS binning on SKW3 cells; competitor RPA-T4-PE-Dazzle 594 (its signal read); background 783, max binding 15000
T1 construct: whole, on cells; SKW3 CD4 knockout cells served as the negative cell line; also called hCD4; SKW3 WT
Method: (§1) αCD4 containing hybridoma supernatants were binned against three comparator antibodies by FACS using SKW3 cells, which endogenously express human CD4 protein. Briefly, SKW3 cells were incubated with saturated hybridoma supernatant for 30 minutes at 4° C.

[2] = biological target: T1, human CD4 on the surface of SKW3 cells …; test: FACS confirmation, supernatant on human PBMCs, anti-mouse Fc A647
Method: (§2) FACS Confirmation screens were performed for primary screening positive hybridomas using human PBMCs in addition to SKW3/SKW3 CD4 KO cell lines. PBMCs were thawed and resuspended to 8E6/mL in FACS buffer. […] PBMCs were added to the 96 well plates (25 μL/well) and incubated at 4° C. for 30 minutes. […] Cells were washed twice before acquired by IQUE3 Flow Cytometer and analyzed with FORECYT software (Sartorius). Primary parameter used to assess confirmation was CD4 positive percent of viable cells. […] SKW3 gMFI binding was used as secondary parameter to assess confirmation.

[3] = biological target: T1, human CD4 on the surface of SKW3 cells …; test: FACS primary screen, non-clonal hybridoma supernatant, SKW3 vs SKW3 CD4 KO cells, anti-human kappa FITC
Method: (§3) FACS cell binding. αCD4 antibody producing hybridomas were identified by cell surface CD4 binding using FACS. For primary screening SKW3 (human T-ALL) was used as the CD4 positive cell line and SKW3 CD4 knockout (KO) as the negative cell line, respectively. SKW3 KO cells were labeled with Tag-it Violet (BioLegend) at RT for 15 min. After removing extra dye by washing cells with FACS buffer (1% BSA/1 mM EDTA/0.05% NaN3 in PBS) equal number of SKW3 and labeled SKW3 CD4 KO cells were combined, washed, and resuspended in FACS buffer at 8E6 cells/6 mL. […] Cells (˜20K/15 μL/well) were added to the supernatant and incubated at 4° C. for 30 minutes. […] Cells were washed twice before acquired by IQUE3 Flow Cytometer and analyzed with FORECYT software (Sartorius). Positive wells were selected with the following criteria: Over 2-fold selective binding to SKW3 cell line relative to SKW3 CD4 KO with over 10% signal above background binding with anti-human Kappa. Hybridomas from primary screening positive wells were transferred to 96 well plates.

[4] = biological target: T1, human CD4 on the surface of SKW3 cells …; test: FACS confirmation, supernatant on human PBMCs, anti-mouse Fc A647, CD4+ gate
Method: as §2

[5] = biological target: T1, human CD4 on the surface of SKW3 cells …; test: FACS primary screen, non-clonal hybridoma supernatant, SKW3 vs SKW3 CD4 KO cells, anti-mouse Fc A647
Method: as §3

[6] = biological target: T1, human CD4 on the surface of SKW3 cells …; test: FACS binning on SKW3 cells; competitor OKT4a, anti-human A647 secondary (its signal read); background 5000, max binding 35000
Method: as §1

[7] = biological target: T1, human CD4 on the surface of SKW3 cells …; test: FACS confirmation, supernatant on SKW3 WT cells, anti-human kappa FITC; background gMFI 2500
huCD4-HIS = biological target: T2, huCD4-HIS (human, UniProt P01730 26-390, limits assumed); test: ELISA binning; competitor ibalizumab; 100 ng/mL huCD4-HIS, anti-HIS HRP detection; background 45, max binding 3000000
T2 construct: not shown: HIS tag

[8] = biological target: T1, human CD4 on the surface of SKW3 cells …; test: FACS binning on SKW3 cells; competitor OKT4-Alexa Fluor 488 (its signal read); background 2163, max binding 8200
Method: as §1

[9] = biological target: T1, human CD4 on the surface of SKW3 cells …; test: FACS confirmation, supernatant on SKW3 WT cells, anti-mouse Fc A647; background gMFI 3300
Method: as §2

Binder | RPA-T4-PE-Dazzle 594 signal [1] | PBMCs, anti-mFc 647 CD4+ Percent Bound of Viable [2] [%] | SKW3 WT vs KO anti-hKappa-FITC [3] [ratio] | PBMCs, anti-mFc 647 CD4+ gate - RL1 Binding [4] | SKW3 WT vs KO anti-mFc-647 [5] [ratio] | OKT4a anti-hu A647 Secondary signal [6] | SKW3 WT anti-hu Kappa FITC, gMFI [7] [gMFI] | Ibalizumab ELISA binning signal (huCD4-HIS) | OKT4 A488 signal [8] | SKW3 WT anti-mFc 647, gMFI [9] [gMFI]
B1 | 14800 | 28 | 2 | 304000 | 4.8 | 44600 | 5810 | 1.99e+06 | 2990 | 22300
B2 | 14700 | 33 | 2.2 | 287000 | 5.4 | 46600 | 5880 | 1.76e+06 | 2700 | 24800
B3 | 14800 | 29 | 2 | 264000 | 4 | 42000 | 5360 | 2.2e+06 | 4020 | 18000
B4 | 14600 | 27 | 2.4 | 244000 | 5.2 | 34400 | 6550 | 1.74e+06 | 2620 | 22800
B5 | 14900 | 29 | 2.3 | 274000 | 6.7 | 43400 | 6160 | 1.95e+06 | 3170 | 22600
B6 | 15900 | 29 | 1.5 | 181000 | 3.9 | 37400 | 5130 | 2.57e+06 | 3120 | 16300
B7 | 15000 | 31 | 2.1 | 283000 | 3.4 | 45900 | 7020 | 1.88e+06 | 2850 | 27600
B8 | 14700 | 31 | 2.4 | 321000 | 7.5 | 43700 | 5930 | 1.26e+06 | 2140 | 32300
B9 | 13500 | 31 | 3.1 | 317000 | 8.4 | 41500 | 7260 | 335000 | 3320 | 30900
B10 | 19200 | 28 | 2.4 | 266000 | 8 | 6980 | 5920 | 865000 | 9510 | 18700
B11 | 20700 | 28 | 2.5 | 229000 | 4.2 | 5720 | 8010 | 885000 | 9750 | 27300
B12 | 19900 | 28 | 3 | 260000 | 8.4 | 6060 | 7420 | 1.57e+06 | 9760 | 25300
